Experimental findings from patent US20090305963A1, “Lipocalin 2 for the Treatment, Prevention, and Management of Cancer Metastasis, Angiogenesis, and Fibrosis” (priority 2005, published 2009) are described below.

Holding throughout (format): cell-based, mouse
One test has as its system VEGF. Briefly: Measurement of VEGF levels by ELISA in conditioned media of 4T1 cells. As to conditions: RL vs R cells; conditioned media, 2 days. The protocol: Conditioned media of 4T1 cells were collected after 2 days of incubation. Murine VEGF levels were determined in duplicate using a commercially available sandwich ELISA kit (R&D Systems, Minneapolis, Minn.), with a affinity purified polyclonal antibody specific for mouse VEGF has been pre-coated onto a microplate. Results were compared with a standard curve of mouse VEGF with a lower detection limit of 7 pg/mL. A model 680 microplate-reader (Bio-Rad Laboratories, CA) was used to measure light intensity correlating with VEGF binding.
On the technique in general: In an ELISA, binding on a coated surface is turned into a signal by an enzyme label.

For test [1], the system named is serum-response element (SRE). Description: SRE-luciferase assay. The following applies: RL cells; 48 hour incubation in serum free DMEM. Here is the method: After transient transfection of the plasmids, cells were incubated for 20 hours in 10% FCS and luciferase activity in the cell lysates was determined using a luminometer normalized by sea-pansy luciferase activity under the control of the thymidine kinase promoter. The Dual-Luciferase Reporter Assay System was purchased from Promega (Madison, Wis.) (Hanai et al., J. Biol. Chem. 277:16464-16469, 2002).
For these experiments, EV and R cells were starved in DMEM without serum for 48 hours. During this time, half of the R cells were incubated with 50 μg/ml of lipocalin 2 protein with iron-loaded siderophore (R+Lipo:Sid:Fe), after which all cells were incubated with 10% FCS containing DMEM for 20 minutes and then harvested for western blotting with phosphospecific antibodies. Signaling events downstream of ERK activation were then monitored with a multi-copy serum-response element (SRE)-luciferase construct introduced into EV, R, and RL (FIG. 6B). For these experiments, an SRE-luciferase assay was performed on 4T1 clones after the 48 hour incubation in serum free DMEM. […] Just like R cells treated with exogenous protein (FIG. 6A), R cells infection with recombinant adenovirus carrying lipocalin 2, but not GFP, reduced SRE-luciferase activity, MEK, and ERK1/2 phosphorylation, without altering ras expression.
To localize the effect of lipocalin on ras-MAPK signaling, we utilized an adenovirus and expression plasmid encoding a constitutively active MEK (MEK-DD) (Murakami et al., Cell Growth Differ 10:333-342, 1999). MEK-DD adenoviral infection of EV cells led to increased SRE-luciferase activity (increased MAPK activity). […] RL cells in a 6-well plate were infected with an adenovirus carrying the MEK dominant active form (MEK-DD) and a Lac-Z adenovirus at the indicated multiplicities (MOI) in 2% serum including DMEM medium for 48 hours. Cells were then trypsinized, respread on 6-well plate at 5-10% confluency, and incubated with 10% serum including DMEM medium. Cell lysates were collected for western blotting 48 hours after the final plating (FIG. 6D). […]

The subject of another test is E-cadherin. Briefly: EMT phenotype, E-cadherin and vimentin protein in 4T1 clones (microscopy, western blot). The following applies: RL cells compared to R cells. From the text: Cells were stained as described previously (Mammoto et al., Cancer Lett. 184:165-170, 2002) and images acquired with a Delta Vision system (Applied Precision, Issaquah, Wash.) equipped with an Axiovert 100 microscope (Carl Zeiss MicroImaging Inc., Shelton, Conn.) and a Photometrics 300 series scientific-grade cooled CCD camera, reading 12-bit images, and using the 63/1.4 NA plan-Neofluar objective. For immunoprecipitation and immunoblotting, tissues were weighed, diced, soaked in ice cold RIPA buffer with 1 mM phenylmethylsulfonyl fluoride (PMSF), 1 μg/ml Aprotinin, 1 mM Na3VO4, 1 nM NaF, homogenized on ice, centrifuged at 10,000 g for 10 minutes at 4° C., and the supernatant fluid collected as total cell lysate. Cultured cells were washed, scraped, and solubilized in a lysis buffer containing 20 mM Tris-HCl pH 7.5, 150 mM NaCl, 0.5% Triton X-100, 1% aprotinin, and 1 mM PMSF. After 20 minutes on ice, the cells were pelleted by centrifugation and the supernatants were used as a cell lysate. Cell lysates or immunoprecipitated cell lysates were separated by PAGE (NuPAGE® gels; Invitrogen, Carlsbad, Calif.), followed by electroblotting onto a polyvinylidenedifluoride membrane (PVDF). Protein bands were detected using SuperSignal® West Pico Chemiluminescent Substrate (Pierce Chemical Co., Rockford, Ill.) (Hanai et al., J. Cell. Biol. 158:529-539, 2002).
To assess the effects of lipocalin 2 on ras-mediated transformation, we chose a syngeneic spontaneously metastasizing murine breast cancer model (4T1 cell line) and accelerated its metastatic potential by introduction of constitutively active mouse H-ras mutant A12 using retrovirus. […] We generated stable clones of 4T1-ras cells expressing lipocalin 2 (RL) by transfection of a lipocalin 2 expression plasmid (lipocalin 2-pcDNA3.1). […] (FIG. 2A, lower panel, and FIG. 2B). […] Expression of E-cadherin in RL cells was dependent on the dose of lipocalin 2-pcDNA3.1 expression vector (transiently introduced in a population of R cells), on a conditioned medium containing lipocalin 2 (FIGS. 2D-E), as well as on recombinant lipocalin 2 protein. R cells shown in FIG. 2D were seeded in a 6-well plate and transfected with lipocalin 2 by FuGene 6 at 40% confluency. After 48 hours, cells were trypsinized, respread on 6-well plate, and transfected again in the same conditions. After 72 hours, cells were harvested and analyzed by western blotting. EV cells in FIG. 2E were seeded in a 6-well plate with 1 ml/well containing 10% FCS with DMEM and 2 ml of CM was added at 10% confluency. After 72 hours, cells were harvested and analyzed by western blotting. CM is a mixture of media from 293T cells transfected with lipocalin 2 and from 293 cells transfected with empty vector (pcDNA3.1).
(Immunoblotting shows a protein as a band on a membrane.)

The next test relates to VEGF mRNA. Briefly: VEGF mRNA by semi-quantitative RT-PCR in 4T1 cells. The following applies: RL vs R cells. Here is the method: For VEGF assays, two μg of each RNA sample was reverse transcribed using oligo-dT priming and control reaction was prepared for every sample where the reverse transcriptase was omitted. PCR was performed using Taq DNA polymerase (Qiagen) using primers for mouse VEGF (5′-GTACCTCCACCATGCCAAGT-3′, SEQ ID NO: 10, and 5′-GCGAGTCTGTGTTTTTGCAG-3′ SEQ ID NO: 11), GAPDH (5′-ACAGTCTTCTGAGTGGCA-3′ SEQ ID NO: 6 and 5′-CCCATCACCATCTTCCAG-3′, SEQ ID NO: 7) for DNA amplification. PCR amplification was achieved by initial 94° C. incubation for 5 minutes followed by 25 cycles of 94° C. for 30 seconds, 58° C. for 30 seconds and 72° C. for 30 seconds, with 72° C. for 7 minutes as an extension time. These PCR conditions were established for DNA amplification in the linear range. PCR products were analyzed on 1.5% agarose gels.

B1: lipocalin 2: human lipocalin 2 cDNA (HA tagged) in pcDNA3.1, stably expressed in 4T1-ras cells (RL clone); iron-siderophore binding protein (protein, UniProt P80188 21-198, looked up)
Neutrophil …: QDSTSDLIPAPPLSKVPLQQNFQDNQFQGKWYVVGLAGNAILREDKDPQKMYATIYELKEDKSYNVTSVLFRKKKCDYWIRTFVPGCQPGEFTLGNIKSYPGLTSYLVRVVSTNYNQHAMVFFKKVSQNREYFKITLYGRTKELTSELKENFIRFSKSLGLPENHIVFPVPIDQCIDG
modifications: HA tag
As to B1, the “suppression of ras-induced VEGF secretion” value in the test on VEGF was “≈ 7.5 fold”. In addition, the “SRE-luciferase activity relative to R cells” value in test [1] is on record as “about half to two-thirds”. Further, in the test with E-cadherin, the E-cadherin expression result was “re-expressed E-cadherin”, the cell morphology result is given as “reverted to an epithelial morphology” and the vimentin expression entry is listed as “suppressed the expression of mesenchymal vimentin”. Also, in the test with VEGF mRNA, the “ras-augmented VEGF mRNA level” value is “reduced this upregulation”.
